Test: soluble on expression in E. coli; label from the status in PepcDB or PDB records
For “MSLIKQEHMHPPPRAITPLPPATHQITLEEYKEREKKDYYRDATKDASVKKVVLSLLKDHPGMWQNGNRFQPEKWRALGVDVYQRTGQIVRVNDMRKMLVMGKSVLKKKIAICIRDKKLDRAATEKDLWYWEYYRHFLYYRETLGQFEANLRGEEWTGEDQIQDEDDIIYDGMLDGDLSNSSHNFAGHGADDDYQVEEVQYSEAGFRRPESVRGGDSYFGHGPPPQMVMGSSASNFSSATQSHSRNRKSSSIDHTEVDRSAQHIAEQAKRLFLQYPEKSNLIRETMFKTILAFDDPSADYQNVGEIFDDLAAQEAAKKRKRAENRAQREQQ”, the “soluble on expression in E. coli” value was “not soluble”. In the case of “MTEPVHPIADLTDSLLGWASQTELELAQRLAGGGLVIAAGLSDDELERIERLYGIFLTRQLLAGADFAALIGVSPALTLTTLVARARRVVEIDDFVSEFLGGLGLATDESSVIDIDEATAAIMGAIPQSLARFELLGAQEATDALSAIVSLCTQAGIVNNEVPALLEYLDAVNAEGTVSSEDLVAAIAQQENLPLLATALQIAPAAITELIDGVAAVRQFAVDHHDSWFDRSREHLTPLLPRPIEFSVVSELRERPVGTVDREASVGVASREMRPRILFDADRSKVYLRLPEQRLPIADDGTRGEITWRVSIEGTTKIYHTGSPWGDTSGFAESLDVHIERPVRELTVQDETNEITWTVPVLAHDDPALVFSSRGTNVTDKVALHHQSLIVVTPQDVTLTDVVSGDDIVADSETAVEGWDKWVARYLDVSHVTSLSAVEPGKNANMETLRSIDPRQRVRFLAPSEPVDFLKTTGGLPVHSESLIAEFPPTPSGRTE”, the “soluble on expression in E. coli” value is reported as “not soluble”. In the case of “SHSLGWIFGMPCNQRSSTKASCEEVFDPTEESYLNIETSL”, the “soluble on expression in E. coli” value is reported as “soluble”. With “MGSDKIHHHHHHSNPTRSIPATDAVSSATAGKKMGLQTYSLGQELLQDMPNGLNRLAKAGYTDLEIFGYREDTGKFGDYNPKNTTFIASKDYKKMVDDAGLRISSSHLTPSLREYTKENMPKFDEFWKKATDIHAELGVSCMVQPSLPRIENEDDAKVVSEIFNRAGEITKKAGILWGYHNHSNEFKRVLKAGEKPEQNPNPWAPPKGTYIEELFLKNTDPDKVMFELDVYWAVMGQQDPVEWMENYPNRFKLLHIKDRWIIGDSGMMNFPNIFKKAYEIGILGYYVELEGDKKGRTQFEGVEKSAAYLQAAPFVK” the “soluble on expression in E. coli” value was “not soluble”. In the case of “SVYINRMTGLSTFVAPTDDLHTACTKDLTTVAVDVLLGNDAVDAAAAAVSEPLQSLFSEWSNPVFARYPEVAVDVSSGQAESLAVKIHNVLYPYRFTKEMIHSVKVLQQVDNKFIACLMSTRMDEDGRTGGNLLVLVDQHAAHERIRLEQLITDSYEKQDPQSAGRKKLLSSTIIPPLAITVSEEQRRLLRN”, the “soluble on expression in E. coli” value is reported as “soluble”. For “MASSSLIMGNNMHVKYLAGIVGAALLMAGCSSSNELSAAGQSVRIVDEQPGAECQLIGTATGKQSNWLSGQHGEEGGSMRGAANDLRNQAAAMGGNVIYGISSPSQGMLSSFVPTDSQIIGQVYKCPNLEHHHHHH”, the “soluble on expression in E. coli” value was “not soluble”. With “MKNMIKAASLGLIILSSSMMANAAEAAQKIGYINTAQVFQALPQREVVLQKMQEEFKDKAAELQAIQADAKTKIEKLKRDGQLMGQDEVEKLRIEIGQLDSKYKIKAQALEQASARREAEEKQKLFKVIQDAVKKVAEKEGYDIVLDTSSMQYGKPEHNLSEKVIKAIK” the “soluble on expression in E. coli” value was “not soluble”. In the case of “MPAIVCQSALEAVSLIRSGETLWTHSMGATPKVLLDALAKHALTLDNITLLQLHTEGAESLSHPSLLGHLRHRCFFGGVPTRPLLQSGDADYVPIFLSEVPKLFRSGEQKIDTAIIQVSPPDKHGMCSLGISVEATLAACQVAGKIIAHINPQMPRTHGDGFIHIDRFAAVYEQSASLPIHSFATGDAVSLAIGQHVAELVRDGDCLQMGIGAIPDAVLSCLTGHKDLGVHTELFSDGILQLVEKGVINNTKKRFYPGKLVTGFALGSQKLYDYVDDNPAVIFMDIEQVNDTSIIRKNPNVMAINSALQVDLTGQVCADSIGTKIYSGVGGQMDFIRGAGLSEGGRSVIALPSTAAGGRISRIASVLSPGAGVVTTRAHVHYIVTEYGAANLKGRSLRERAQALINIAHPDFREQLSRDAFEVWGLNLLEHHHHHH”, the “soluble on expression in E. coli” value is reported as “soluble”.

Reference: the DeepSol protein solubility set
